Experimental data published in US20210253666A1 (TCR2 THERAPEUTICS, published 2021).

B1: Single domain anti-MUC16 R3MU119 (VHH)
VHH: QVQLQESGGGLVQPGDSMRLSCAAEGDSLDGYVVGWFRQAPGKERQGVSSISGDGSMRYVADSVKGRFTISRDNAKNTVYLQMIDLKPEDTGVYYCAADPPTWDYWGQGTQVTVSS
notes: Tested as soluble nanobody in crude periplasmic extract; not shown: C-terminal HA tag and His6 tag of the pMECS GG vector
B2: Single domain anti-MUC16 R3MU63 (VHH)
VHH: QVQLQESGGGLVQAGDSLRLSCAASGRTVSSLFMGWFRRAPGKERELVAAISRYSLYTYYADSVKGRFTISADNAKNAVYLQMNSLKPEDTAVYYCASKLEYTSNDYDSWGQGTQVTVSS
notes: as for B1
B3: single domain anti-MUC16 binder R3MU4 (VHH)
VHH: QVQLQESGGGLVQAGGSLRLSCAASGRTVSSLFMGWFRQAPGKERELVAAISRYSLYTYYADSVKGRFTISADNAKNAVYLQMNSLKPEDTAVYYCASKLEYTSNDYDSWGQGTQVTVSS
notes: as for B1
B4: Single domain anti-MUC16 R3MU147 (VHH)
VHH: QVQLQESGGGLVQAGESLRLSCAASGRTVSSLFMGWFRRAPGKERELVAAISRYSLYTYYADSVKGRFTISADNAKNAVYLQMNSLKPEDTAVYYCASKLEYTSNDYDSWGQGTQVTVSS
notes: as for B1
B5: Single domain anti-MUC16 R3MU29 (VHH)
VHH: QVQLQESGGGLVQAGDSLRLSCAASGRAVSSLFMGWFRRAPGKERELVAAISRYSLYTYYADSVKGRFTISADNAKNAVYLQMNSLKPEDTAVYYCASKLEYTSNDYDSWGQGTQVTVSS
notes: as for B1
B6: Single domain anti-MUC16 R3MU150 (VHH)
VHH: QVQLQESGGGLVQPGGSLRLSCAASGRTVSSLFMGWFRRAPGKERELVAAISRYSLYTYYADSVKGRFTISADNAKNAVYLQMNSLKPEDTAVYYCASKLEYTSNDYDSWGQGTQVTVSS
notes: as for B1

Biological target: T1, hMUC16 peptide biotinylated either at C- or N-terminus (bio-hMUC16) (human, biotin at C- or N-terminus)
T1 construct: Captured on streptavidin-coated plates for panning and ELISA screening; also called human MUC16 peptide; MUC16 immunization peptide
T1 peptide: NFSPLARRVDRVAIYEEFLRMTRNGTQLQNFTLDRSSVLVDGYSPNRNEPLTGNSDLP
Assay: ELISA, crude periplasmic extracts on biotinylated hMUC16 peptide captured on streptavidin-coated wells
Description: The Core 93GG library was panned on hMUC16 peptide […] (SEQ ID NO:92) biotinylated either at C- or N-terminus (bio-hMUC16) for 4 rounds. The bio-hMUC16 peptide was allowed to interact with streptavidin coated plates after which phages from the library were added to the plate. The enrichment for antigen-specific phages was assessed after each round of panning by comparing the number of phagemid particles eluted from antigen-coated wells with the number of phagemid particles eluted from negative control wells (coated with streptavidin and blocked but containing no peptide). […] No enrichment was observed after the 1st, 3rd and 4th round. In total, 380 colonies (190 from round 3, 190 from round 4) were randomly selected and analyzed by ELISA for the presence of antigen-specific nanobodies in their periplasmic extracts (ELISA using crude periplasmic extracts including soluble nanobodies). The peptides used for ELISA screening were the same as the ones used for panning, using blocked streptavidin-coated wells without peptide as negative control. Out of these 380 colonies, 34 colonies scored positive in this assay. Based on sequence data of the positive colonies, 6 different full length nanobodies were distinguished, belonging to 2 different CDR3 groups (B-cell lineages) (see Excel file). […] Nanobodies belonging to the same CDR3 group recognize the same epitope but their other characteristics (e.g. affinity, potency, stability, expression yield, etc.) can be different. Clones from these pannings bear the following code in their name: MU.

Binder	binding result
B1	binds
B2	binds
B3	binds
B4	binds
B5	binds
B6	binds
